Laboratory results from patent US20230072197A1 (KOREA UNIVERSITY RESEARCH AND BUSINESS FOUNDATION, published 2023).

Target: human FcRn (probe in the FACS analysis of bacterially displayed Fc variants) (human, UniProt P55899 24-297; P61769 21-119, limits assumed)
Assay: FACS of bacterially displayed Fc variants with human FcRn, pH 6.0

human FcRn (probe in the FACS analysis of bacterially displayed Fc variants), sequence (P55899 24-297 limits assumed, change not shown, chain 1 of 2): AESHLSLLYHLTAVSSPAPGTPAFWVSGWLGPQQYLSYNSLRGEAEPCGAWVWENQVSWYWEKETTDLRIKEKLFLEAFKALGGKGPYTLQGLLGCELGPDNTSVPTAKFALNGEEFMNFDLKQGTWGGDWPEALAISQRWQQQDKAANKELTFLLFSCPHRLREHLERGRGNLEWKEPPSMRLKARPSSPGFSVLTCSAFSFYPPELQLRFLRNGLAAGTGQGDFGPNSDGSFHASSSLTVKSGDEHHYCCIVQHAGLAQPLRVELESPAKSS
human FcRn (probe in the FACS analysis of bacterially displayed Fc variants), sequence (P61769 21-119 limits assumed, change not shown, chain 2 of 2): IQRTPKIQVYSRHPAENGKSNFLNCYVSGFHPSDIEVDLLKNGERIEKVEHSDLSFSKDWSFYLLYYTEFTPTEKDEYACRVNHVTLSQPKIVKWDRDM

Row | Binder | binding result
1 | Fc variant L309G/Q311L/M428L (bacterial display) (other, also called Q311L in M428L and L309G Fc variant) DKTHTCPPCPAPELLGGPSVFLFPPKPKDTLMISRTPEVTCVVVDVSHEDPEVKFNWYVDGVEVHNAKTKPREEQYNSTYRVVSVLTVGHLDWLNGKEYKCKVSNKALPAPIEKTISKAKGQPREPQVYTLPPSRDELTKNQVSLTCLVKGFYPSDIAVEWESNGQPENNYKTTPPVLDSDGSFFLYSKLTVDKSRWQQGNVFSCSVLHEALHNHYTQKSLSLSPGK | binds
2 | Fc variant L309G/Q311K/M428L (bacterial display) (other, also called Q311K in M428L and L309G Fc variant) DKTHTCPPCPAPELLGGPSVFLFPPKPKDTLMISRTPEVTCVVVDVSHEDPEVKFNWYVDGVEVHNAKTKPREEQYNSTYRVVSVLTVGHKDWLNGKEYKCKVSNKALPAPIEKTISKAKGQPREPQVYTLPPSRDELTKNQVSLTCLVKGFYPSDIAVEWESNGQPENNYKTTPPVLDSDGSFFLYSKLTVDKSRWQQGNVFSCSVLHEALHNHYTQKSLSLSPGK | binds
3 | Fc variant L309G/Q311V/M428L (bacterial display) (other, also called Q311V in M428L and L309G Fc variant) DKTHTCPPCPAPELLGGPSVFLFPPKPKDTLMISRTPEVTCVVVDVSHEDPEVKFNWYVDGVEVHNAKTKPREEQYNSTYRVVSVLTVGHVDWLNGKEYKCKVSNKALPAPIEKTISKAKGQPREPQVYTLPPSRDELTKNQVSLTCLVKGFYPSDIAVEWESNGQPENNYKTTPPVLDSDGSFFLYSKLTVDKSRWQQGNVFSCSVLHEALHNHYTQKSLSLSPGK | binds
4 | Fc variant L309G/Q311T/M428L (bacterial display) (other, also called Q311T in M428L and L309G Fc variant) DKTHTCPPCPAPELLGGPSVFLFPPKPKDTLMISRTPEVTCVVVDVSHEDPEVKFNWYVDGVEVHNAKTKPREEQYNSTYRVVSVLTVGHTDWLNGKEYKCKVSNKALPAPIEKTISKAKGQPREPQVYTLPPSRDELTKNQVSLTCLVKGFYPSDIAVEWESNGQPENNYKTTPPVLDSDGSFFLYSKLTVDKSRWQQGNVFSCSVLHEALHNHYTQKSLSLSPGK | binds
5 | Fc variant L309G/Q311H/M428L (bacterial display) (other, also called Q311H in M428L and L309G Fc variant) DKTHTCPPCPAPELLGGPSVFLFPPKPKDTLMISRTPEVTCVVVDVSHEDPEVKFNWYVDGVEVHNAKTKPREEQYNSTYRVVSVLTVGHHDWLNGKEYKCKVSNKALPAPIEKTISKAKGQPREPQVYTLPPSRDELTKNQVSLTCLVKGFYPSDIAVEWESNGQPENNYKTTPPVLDSDGSFFLYSKLTVDKSRWQQGNVFSCSVLHEALHNHYTQKSLSLSPGK | binds
6 | Fc variant L309G/Q311Y/M428L (bacterial display) (other, also called Q311Y in M428L and L309G Fc variant) DKTHTCPPCPAPELLGGPSVFLFPPKPKDTLMISRTPEVTCVVVDVSHEDPEVKFNWYVDGVEVHNAKTKPREEQYNSTYRVVSVLTVGHYDWLNGKEYKCKVSNKALPAPIEKTISKAKGQPREPQVYTLPPSRDELTKNQVSLTCLVKGFYPSDIAVEWESNGQPENNYKTTPPVLDSDGSFFLYSKLTVDKSRWQQGNVFSCSVLHEALHNHYTQKSLSLSPGK | binds
7 | Fc variant L309G/Q311I/M428L (bacterial display) (other, also called Q311I in M428L and L309G Fc variant) DKTHTCPPCPAPELLGGPSVFLFPPKPKDTLMISRTPEVTCVVVDVSHEDPEVKFNWYVDGVEVHNAKTKPREEQYNSTYRVVSVLTVGHIDWLNGKEYKCKVSNKALPAPIEKTISKAKGQPREPQVYTLPPSRDELTKNQVSLTCLVKGFYPSDIAVEWESNGQPENNYKTTPPVLDSDGSFFLYSKLTVDKSRWQQGNVFSCSVLHEALHNHYTQKSLSLSPGK | binds
8 | Fc variant L309G/Q311A/M428L (bacterial display) (other, also called Q311A in M428L and L309G Fc variant) DKTHTCPPCPAPELLGGPSVFLFPPKPKDTLMISRTPEVTCVVVDVSHEDPEVKFNWYVDGVEVHNAKTKPREEQYNSTYRVVSVLTVGHADWLNGKEYKCKVSNKALPAPIEKTISKAKGQPREPQVYTLPPSRDELTKNQVSLTCLVKGFYPSDIAVEWESNGQPENNYKTTPPVLDSDGSFFLYSKLTVDKSRWQQGNVFSCSVLHEALHNHYTQKSLSLSPGK | binds
9 | Fc variant L309G/Q311W/M428L (bacterial display) (other, also called Q311W in M428L and L309G Fc variant) DKTHTCPPCPAPELLGGPSVFLFPPKPKDTLMISRTPEVTCVVVDVSHEDPEVKFNWYVDGVEVHNAKTKPREEQYNSTYRVVSVLTVGHWDWLNGKEYKCKVSNKALPAPIEKTISKAKGQPREPQVYTLPPSRDELTKNQVSLTCLVKGFYPSDIAVEWESNGQPENNYKTTPPVLDSDGSFFLYSKLTVDKSRWQQGNVFSCSVLHEALHNHYTQKSLSLSPGK | binds
